Reference: PMC11445581
One block for each substance: values may come before it.

Tests used:
[1] = molecular target: Anaphase Promoting Complex/Cyclosome (APC/C), endogenous, with APC8-mScarlet (human (endogenous in RPE-1)) (UniProt Q9UJX2); experiment: fluorescence cross-correlation spectroscopy (FCCS); in living RPE-1 Cyclin B1-mEmerald+/+; APC8-mScarlet+/+ cells (metaphase by p-0009), measured in the cytoplasm; apparent
[2] = molecular target: Anaphase Promoting Complex/Cyclosome (APC/C), endogenous, with APC8-mScarlet (human (endogenous in RPE-1)) (UniProt Q9UJX2); experiment: fluorescence cross-correlation spectroscopy (FCCS); in living RPE-1 Cyclin B1-mEmerald+/+; APC8-mScarlet+/+ cells (metaphase by p-0009), measured at the chromosomes; apparent
[3] = molecular target: Anaphase Promoting Complex/Cyclosome (APC/C), endogenous, with APC8-mScarlet (human (endogenous in RPE-1)) (UniProt Q9UJX2); experiment: fluorescence cross-correlation spectroscopy (FCCS); in living RPE-1 Cyclin B1-mEmerald+/+; APC8-mScarlet+/+ cells (metaphase by p-0009), measured at the spindle poles; apparent
[4] = molecular target: Anaphase Promoting Complex/Cyclosome (APC/C), endogenous, with APC8-mScarlet (human (endogenous in RPE-1)) (UniProt Q9UJX2); experiment: fluorescence cross-correlation spectroscopy (FCCS); in living RPE-1 Cyclin B1-mEmerald+/+; APC8-mScarlet+/+ cells (metaphase by p-0009), measured at the spindle fibres; apparent
[5] = molecular target: Anaphase Promoting Complex/Cyclosome (APC/C) with APC8-mScarlet, endogenous (human (endogenous in RPE-1)) (UniProt Q9UJX2); experiment: fluorescence cross-correlation spectroscopy (FCCS); living RPE-1 Cyclin B1-mEmerald+/+; APC8-mScarlet+/+ cells in metaphase (untreated; similar with MG132), measured in the cytoplasm; in vivo KD
[6] = molecular target: Anaphase Promoting Complex/Cyclosome (APC/C) with APC8-mScarlet, endogenous (human (endogenous in RPE-1)) (UniProt Q9UJX2); experiment: fluorescence cross-correlation spectroscopy (FCCS); living RPE-1 Cyclin B1-mEmerald+/+; APC8-mScarlet+/+ cells in metaphase (untreated; similar with MG132), measured at the chromatin (chromosomes); in vivo KD
[7] = molecular target: Nucleosome Core Particle NCP147, P04908;P68431;P62805; experiment: EMSA; settings: 2 µM Cyclin B1; parent: est. 18; read off a plot

Kd [1]: 176 nM
Kd [2]: 83 nM
Kd [3]: 81 nM
Kd [4]: 71 nM
Substance: Cyclin B1-mEmerald (endogenous) (from UniProt P14635 1-433) (natural protein)

Kd [5]: 180 nM
Kd [6]: 80 nM
Substance: Cyclin B1-mEmerald (endogenous, both alleles tagged) (from UniProt P14635 1-433) (natural protein)

other: Unbound NCP147 (%) [7]: 85%
Substance: Cyclin B1^WT-StrepII, full length (from UniProt P14635) L3A; R4A; V5A; T6A; R7A

other: Unbound NCP147 (%) [7]: 54%
Substance: Cyclin B1^WT-StrepII, full length (from UniProt P14635) R4E; R7E
